The supplement of paper PMC5998384

Experiments:
HeLa Kyoto [1] = assay: solubility in G1/S (NP-40 vs SDS abundance) (log2 ratio); higher = more soluble; settings: cell cycle stage: G1/S
HeLa Kyoto [2] = assay: solubility change mitosis vs G1/S (difference of NP-40 vs SDS log2 ratios) (log2 ratio difference); higher = more soluble in mitosis
HeLa Kyoto [3] = assay: thermal stability score vs G1/S (z-score of summed log2 fold changes over temperatures); higher = more thermally stable than in G1/S
HeLa Kyoto [4] = assay: melting temperature (median over replicates), in situ; higher = more thermally stable
[5] = cell cycle stage: early G1 (4.5 h after nocodazole release)
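Wherever melting temperature (median over replicates), in situ is given: HeLa Kyoto cells synchronized by double thymidine or nocodazole block, proteins quantified by TMT10plex mass spectrometry, three independent biological replicates.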
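Wherever solubility change mitosis vs G1/S (difference of NP-40 vs SDS log2 ratios) is given: synchronized HeLa Kyoto cells (double thymidine block for G1/S, nocodazole release for mitosis), protein amounts in NP-40 versus SDS lysates quantified by mass spectrometry, three biological replicates.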
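Wherever solubility in G1/S (NP-40 vs SDS abundance) is given: HeLa Kyoto cells arrested at G1/S by double thymidine block, proteins quantified by TMT10plex mass spectrometry in mild NP-40 versus SDS extracts, three biological replicates.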
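Wherever thermal stability score vs G1/S (z-score of summed log2 fold changes over temperatures) is given: synchronized HeLa Kyoto cells, proteins quantified by TMT10plex mass spectrometry, three biological replicates, mitosis taken 0.5 h after nocodazole release, G1/S directly after double thymidine block.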

Sequence | solubility in G1/S (log2) (HeLa Kyoto [1]) | solubility change mitosis (log2) (HeLa Kyoto [2]) | thermal stability score (HeLa Kyoto [3]; [5]) | thermal stability score (HeLa Kyoto [3]; cell cycle stage: mitosis) | melting temperature (HeLa Kyoto [4]; cell cycle stage: G1/S) | melting temperature (HeLa Kyoto [4]; cell cycle stage: mitosis)
MLGSLVLRRKALAPRLLLRLLRSPTLRGHGGASGRNVTTGSLGEPQWLRVATGGRPGTSPALFSGRGAATGGRQGGRFDTKCLAAATWGRLPGPEETLPGQDSWNGVPSRAGLGMCALAAALVVHCYSKSPSNKDAALLEAARANNMQEVSRLLSEGADVNAKHRLGWTALMVAAINRNNSVVQVLLAAGADPNLGDDFSSVYKTAKEQGIHSLEDGGQDGASRHITNQWTSALEFRRWLGLPAGVLITREDDFNNRLNNRASFKGCTALHYAVLADDYRTVKELLDGGANPLQRNEMGHTPLDYAREGEVMKLLRTSEAKYQEKQRKREAEERRRFPLEQRLKEHIIGQESAIATVGAAIRRKENGWYDEEHPLVFLFLGSSGIGKTELAKQTAKYMHKDAKKGFIRLDMSEFQERHEVAKFIGSPPGYVGHEEGGQLTKKLKQCPNAVVLFDEVDKAHPDVLTIMLQLFDEGRLTDGKGKTIDCKDAIFIMTSNVASDEIAQHALQLRQEALEMSRNRIAENLGDVQISDKITISKNFKENVIRPILKAHFRRDEFLGRINEIVYFLPFCHSELIQLVNKELNFWAKRAKQRHNITLLWDREVADVLVDGYNVHYGARSIKHEVERRVVNQLAAAYEQDLLPGGCTLRITVEDSDKQLLKSPELPSPQAEKRLPKLRLEIIDKDSKTRRLDIRAPLHPEKVCNTI [CLPB] | 0.0358 | -0.0294 | 0.555 | 0.467 | 52 °C | 51.8 °C
MDPSDFPSPFDPLTLPEKPLAGDLPVDMEFGEDLLESQTAPTRGWAPPGPSPSSGALDLLDTPAGLEKDPGVLDGATELLGLGGLLYKAPSPPEVDHGPEGTLAWDAGDQTLEPGPGGQTPEVVPPDPGAGANSCSPEGLLEPLAPDSPITLQSPHIEEEETTSIATARRGSPGQEEELPQGQPQSPNAPPSPSVGETLGDGINSSQTKPGGSSPPAHPSLPGDGLTAKASEKPPERKRSERVRRAEPPKPEVVDSTESIPVSDEDSDAMVDDPNDEDFVPFRPRRSPRMSLRSSVSQRAGRSAVGTKMTCAHCRTPLQKGQTAYQRKGLPQLFCSSSCLTTFSKKPSGKKTCTFCKKEIWNTKDSVVAQTGSGGSFHEFCTSVCLSLYEAQQQRPIPQSGDPADATRCSICQKTGEVLHEVSNGSVVHRLCSDSCFSKFRANKGLKTNCCDQCGAYIYTKTGSPGPELLFHEGQQKRFCNTTCLGAYKKKNTRVYPCVWCKTLCKNFEMLSHVDRNGKTSLFCSLCCTTSYKVKQAGLTGPPRPCSFCRRSLSDPCYYNKVDRTVYQFCSPSCWTKFQRTSPEGGIHLSCHYCHSLFSGKPEVLDWQDQVFQFCCRDCCEDFKRLRGVVSQCEHCRQEKLLHEKLRFSGVEKSFCSEGCVLLYKQDFTKKLGLCCITCTYCSQTCQRGVTEQLDGSTWDFCSEDCKSKYLLWYCKAARCHACKRQGKLLETIHWRGQIRHFCNQQCLLRFYSQQNQPNLDTQSGPESLLNSQSPESKPQTPSQTKVENSNTVRTPEENGNLGKIPVKTRSAPTAPTPPPPPPPATPRKNKAAMCKPLMQNRGVSCKVEMKSKGSQTEEWKPQVIVLPIPVPIFVPVPMHLYCQKVPVPFSMPIPVPVPMFLPTTLESTDKIVETIEELKVKIPSNPLEADILAMAEMIAEAEELDKASSDLCDLVSNQSAEGLLEDCDLFGPARDDVLAMAVKMANVLDEPGQDLEADFPKNPLDINPSVDFLFDCGLVGPEDVSTEQDLPRTMRKGQKRLVLSESCSRDSMSSQPSCTGLNYSYGVNAWKCWVQSKYANGETSKGDELRFGPKPMRIKEDILACSAAELNYGLAQFVREITRPNGERYEPDSIYYLCLGIQQYLLENNRMVNIFTDLYYLTFVQELNKSLSTWQPTLLPNNTVFSRVEEEHLWECKQLGVYSPFVLLNTLMFFNTKFFGLQTAEEHMQLSFTNVVRQSRKCTTPRGTTKVVSIRYYAPVRQRKGRDTGPGKRKREDEAPILEQRENRMNPLRCPVKFYEFYLSKCPESLRTRNDVFYLQPERSCIAESPLWYSVIPMDRSMLESMLNRILAVREIYEELGRPGEEDLD [ZMYM3] | -0.523 | 0.169 | 0.311 | 1.4 | 49.3 °C | 50.6 °C
MENQVLTPHVYWAQRHRELYLRVELSDVQNPAISITENVLHFKAQGHGAKGDNVYEFHLEFLDLVKPEPVYKLTQRQVNITVQKKVSQWWERLTKQEKRPLFLAPDFDRWLDESDAEMELRAKEEERLNKLRLESEGSPETLTNLRKGYLFMYNLVQFLGFSWIFVNLTVRFCILGKESFYDTFHTVADMMYFCQMLAVVETINAAIGVTTSPVLPSLIQLLGRNFILFIIFGTMEEMQNKAVVFFVFYLWSAIEIFRYSFYMLTCIDMDWKVLTWLRYTLWIPLYPLGCLAEAVSVIQSIPIFNETGRFSFTLPYPVKIKVRFSFFLQIYLIMIFLGLYINFRHLYKQRRRRYGQKKKKIH [HACD3] | -0.3 | -0.00775 | -0.451 | -1.3 | 53.8 °C | 53.9 °C
MTLTERLREKISRAFYNHGLLCASYPIPIILFTGFCILACCYPLLKLPLPGTGPVEFTTPVKDYSPPPVDSDRKQGEPTEQPEWYVGAPVAYVQQIFVKSSVFPWHKNLLAVDVFRSPLSRAFQLVEEIRNHVLRDSSGIRSLEELCLQVTDLLPGLRKLRNLLPEHGCLLLSPGNFWQNDWERFHADPDIIGTIHQHEPKTLQTSATLKDLLFGVPGKYSGVSLYTRKRMVSYTITLVFQHYHAKFLGSLRARLMLLHPSPNCSLRAESLVHVHFKEEIGVAELIPLVTTYIILFAYIYFSTRKIDMVKSKWGLALAAVVTVLSSLLMSVGLCTLFGLTPTLNGGEIFPYLVVVIGLENVLVLTKSVVSTPVDLEVKLRIAQGLSSESWSIMKNMATELGIILIGYFTLVPAIQEFCLFAVVGLVSDFFLQMLFFTTVLSIDIRRMELADLNKRLPPEACLPSAKPVGQPTRYERQLAVRPSTPHTITLQPSSFRNLRLPKRLRVVYFLARTRLAQRLIMAGTVVWIGILVYTDPAGLRNYLAAQVTEQSPLGEGALAPMPVPSGMLPPSHPDPAFSIFPPDAPKLPENQTSPGESPERGGPAEVVHDSPVPEVTWGPEDEELWRKLSFRHWPTLFSYYNITLAKRYISLLPVIPVTLRLNPREALEGRHPQDGRSAWPPPGPIPAGHWEAGPKGPGGVQAHGDVTLYKVAALGLATGIVLVLLLLCLYRVLCPRNYGQLGGGPGRRRRGELPCDDYGYAPPETEIVPLVLRGHLMDIECLASDGMLLVSCCLAGHVCVWDAQTGDCLTRIPRPGRQRRDSGVGSGLEAQESWERLSDGGKAGPEEPGDSPPLRHRPRGPPPPSLFGDQPDLTCLIDTNFSAQPRSSQPTQPEPRHRAVCGRSRDSPGYDFSCLVQRVYQEEGLAAVCTPALRPPSPGPVLSQAPEDEGGSPEKGSPSLAWAPSAEGSIWSLELQGNLIVVGRSSGRLEVWDAIEGVLCCSSEEVSSGITALVFLDKRIVAARLNGSLDFFSLETHTALSPLQFRGTPGRGSSPASPVYSSSDTVACHLTHTVPCAHQKPITALKAAAGRLVTGSQDHTLRVFRLEDSCCLFTLQGHSGAITTVYIDQTMVLASGGQDGAICLWDVLTGSRVSHVFAHRGDVTSLTCTTSCVISSGLDDLISIWDRSTGIKFYSIQQDLGCGASLGVISDNLLVTGGQGCVSFWDLNYGDLLQTVYLGKNSEAQPARQILVLDNAAIVCNFGSELSLVYVPSVLEKLD [SCAP] | -0.105 | -0.108 | -0.535 | 0.3 | 53.4 °C | 52.8 °C
MPEIVDTCSLASPASVCRTKHLHLRCSVDFTRRTLTGTAALTVQSQEDNLRSLVLDTKDLTIEKVVINGQEVKYALGERQSYKGSPMEISLPIALSKNQEIVIEISFETSPKSSALQWLTPEQTSGKEHPYLFSQCQAIHCRAILPCQDTPSVKLTYTAEVSVPKELVALMSAIRDGETPDPEDPSRKIYKFIQKVPIPCYLIALVVGALESRQIGPRTLVWSEKEQVEKSAYEFSETESMLKIAEDLGGPYVWGQYDLLVLPPSFPYGGMENPCLTFVTPTLLAGDKSLSNVIAHEISHSWTGNLVTNKTWDHFWLNEGHTVYLERHICGRLFGEKFRHFNALGGWGELQNSVKTFGETHPFTKLVVDLTDIDPDVAYSSVPYEKGFALLFYLEQLLGGPEIFLGFLKAYVEKFSYKSITTDDWKDFLYSYFKDKVDVLNQVDWNAWLYSPGLPPIKPNYDMTLTNACIALSQRWITAKEDDLNSFNATDLKDLSSHQLNEFLAQTLQRAPLPLGHIKRMQEVYNFNAINNSEIRFRWLRLCIQSKWEDAIPLALKMATEQGRMKFTRPLFKDLAAFDKSHDQAVRTYQEHKASMHPVTAMLVGKDLKVD [LTA4H] | 0.0608 | -0.173 | 1.7 | 0.372 | 53 °C | 53 °C
MNREDRNVLRMKERERRNQEIQQGEDAFPPSSPLFAEPYKVTSKEDKLSSRIQSMLGNYDEMKDFIGDRSIPKLVAIPKPTVPPSADEKSNPNFFEQRHGGSHQSSKWTPVGPAPSTSQSQKRSSGLQSGHSSQRTSAGSSSGTNSSGQRHDRESYNNSGSSSRKKGQHGSEHSKSRSSSPGKPQAVSSLNSSHSRSHGNDHHSKEHQRSKSPRDPDANWDSPSRVPFSSGQHSTQSFPPSLMSKSNSMLQKPTAYVRPMDGQESMEPKLSSEHYSSQSHGNSMTELKPSSKAHLTKLKIPSQPLDASASGDVSCVDEILKEMTHSWPPPLTAIHTPCKTEPSKFPFPTKESQQSNFGTGEQKRYNPSKTSNGHQSKSMLKDDLKLSSSEDSDGEQDCDKTMPRSTPGSNSEPSHHNSEGADNSRDDSSSHSGSESSSGSDSESESSSSDSEANEPSQSASPEPEPPPTNKWQLDNWLNKVNPHKVSPASSVDSNIPSSQGYKKEGREQGTGNSYTDTSGPKETSSATPGRDSKTIQKGSESGRGRQKSPAQSDSTTQRRTVGKKQPKKAEKAAAEEPRGGLKIESETPVDLASSMPSSRHKAATKGSRKPNIKKESKSSPRPTAEKKKYKSTSKSSQKSREIIETDTSSSDSDESESLPPSSQTPKYPESNRTPVKPSSVEEEDSFFRQRMFSPMEEKELLSPLSEPDDRYPLIVKIDLNLLTRIPGKPYKETEPPKGEKKNVPEKHTREAQKQASEKVSNKGKRKHKNEDDNRASESKKPKTEDKNSAGHKPSSNRESSKQSAAKEKDLLPSPAGPVPSKDPKTEHGSRKRTISQSSSLKSSSNSNKETSGSSKNSSSTSKQKKTEGKTSSSSKEVKEKAPSSSSNCPPSAPTLDSSKPRRTKLVFDDRNYSADHYLQEAKKLKHNADALSDRFEKAVYYLDAVVSFIECGNALEKNAQESKSPFPMYSETVDLIKYTMKLKNYLAPDATAADKRLTVLCLRCESLLYLRLFKLKKENALKYSKTLTEHLKNSYNNSQAPSPGLGSKAVGMPSPVSPKLSPGNSGNYSSGASSASASGSSVTIPQKIHQMAASYVQVTSNFLYATEIWDQAEQLSKEQKEFFAELDKVMGPLIFNASIMTDLVRYTRQGLHWLRQDAKLIS [AFF4] | 0.00478 | 0.309 | 0.474 | 1.75 | 48.6 °C | 51 °C
